The numbers were not newly measured in paper PMC7427315, which cites them from elsewhere.

The target of this series is MAG ECD (Mus musculus) (UniProt P20917).

One may read the Kd as the constant that tells how readily two partners part at equilibrium. Consider MAG ECD (from UniProt P20917), for which the Kd is 380 µM.
